Assay results from article PMC4001326, “DNA polymerase V activity is autoregulated by a novel intrinsic DNA-dependent ATPase”.
Where “and” joins values, the source holds several entries; their conditions need not be identical. Equal entries are not always repeated.

Tests used:
[1] = target: pol V Mut E38K/K72R K72R;RecA:E38K (Escherichia coli (pol V from strain RW644)) (UniProt P0AG11+P04152+P0A7G6); test: fluorescence anisotropy; settings: fluorescein-dT replacing T44 (from parent S5); 20 mM Tris-HCl pH 7.5, 25 mM Na glutamate, 8 mM MgCl2, 8 mM DTT, 4% glycerol, 0.1 mM EDTA, 37 C; 50 nM labeled hairpin; 500 uM ATP or ATPgS (titrations to …)
[2] = target: pol V Mut E38K/ΔC17 del17-17;RecA:E38K (Escherichia coli (pol V from strain RW644)) (UniProt P0AG11+P04152+P0A7G6); test: fluorescence anisotropy; settings: fluorescein-dT replacing T44 (from parent S5); 20 mM Tris-HCl pH 7.5, 25 mM Na glutamate, 8 mM MgCl2, 8 mM DTT, 4% glycerol, 0.1 mM EDTA, 37 C; 50 nM labeled hairpin; 500 uM ATP or ATPgS (titrations to …)
[3] = target: T1, pol V Mut WT (UmuD'2C-RecA-ATP) (Escherichia coli (pol V from strain …, UniProt P0AG11;P04152;P0A7G6 25-139;1-422;2-353)); test: fluorescence anisotropy; 500 uM ATPgS; 20 mM Tris-HCl pH 7.5, 25 mM Na glutamate, 8 mM MgCl2, 8 mM DTT, 4% glycerol, 0.1 mM EDTA, 37 C; 50 nM labeled hairpin; 500 uM ATP or ATPgS (titrations to 750 uM); settings: protein: recombinant, tags: His (pol V), chain copies: 2;1;1, label: fluorescein (internal dT), 18 bp stem, 5' overhang 12 nt
[4] = target: T1, pol V Mut WT (UmuD'2C-RecA-ATP); test: fluorescence anisotropy; ATPgS titration, saturating at about 220 uM; 20 mM Tris-HCl pH 7.5, 25 mM Na glutamate, 8 mM MgCl2, 8 mM DTT, 4% glycerol, 0.1 mM EDTA, 37 C; 50 nM labeled hairpin; 500 uM ATP or ATPgS (titrations to 750 uM); settings: protein: recombinant, tags: His (pol V), chain copies: 2;1;1, label: fluorescein (internal dT), 18 bp stem, 5' overhang 3 nt by name

CGAAACAGGAAAGCAGTTAGCGCATTCAGCTCATACTGCTGAATGCGCTAACTGC [Fluorescein 12 nt oh HP]
Kd [1]: 920 nM
Kd [2]: 312 nM and 469 nM

B1: Fluorescein 12 nt oh HP (structured_DNA)
DNA: CGAAACAGGAAAGCAGTTAGCGCATTCAGCTCATACTGCTGAATGCGCTAACTGC
modifications: fluorescein-dT replacing T44 (from parent S5)
Kd [3]: 876 ± 52 nM

B2: Fluorescein 3 nt oh HP (structured_DNA)
DNA: AGAGCAGTTAGCGCATTCAGCTCATACTGCTGAATGCGCTAACTGC
modifications: fluorescein-dT replacing T17 (from parent S1)
binding result [4]: binds
